B1: Transcriptional regulator ERG, residues 117 to 197; numbered along this chain, P11308 (parent)
chain: NMTTNERRVIVPADPTLWSTDHVRQWLEWAVKEYGLPDVNILLFQNIDGKELCKMTKDDFQRLTPSYNADILLSHLHYLRE

± gives the uncertainty stated by the source.

This data set covers variants of B1. In words: abundance fitness (aPCA) (normalised: wild type 0, dead -1); higher = more abundant; growth selection in yeast, the domain comes from the species named. The settings on record: Homo sapiens.
On to NMTTNERRVIVPADPTLWSTDHVRQWLEWAVKIYGLPDVNILLFQNIDGKELCKMTKDDFQRLTPSYNADILLSHLHYLRE, for which the abundance fitness is -0.193 ± 0.12. The value for NMTTNERRVIVPADPTLWSTDHVRQWLEWAVKPYGLPDVNILLFQNIDGKELCKMTKDDFQRLTPSYNADILLSHLHYLRE was -0.929 ± 0.2. The value for NMTTNERRVIVPADPTLWSTDHVRQWLEWAVKNYGLPDVNILLFQNIDGKELCKMTKDDFQRLTPSYNADILLSHLHYLRE was -0.059 ± 0.095; that for NMTTNERRVIVPADPTLWSTDHVRQWLEWAVKTYGLPDVNILLFQNIDGKELCKMTKDDFQRLTPSYNADILLSHLHYLRE was -0.15 ± 0.069. Turning to NMTTNERRVIVPADPTLWSTDHVRQWLEWAVKSYGLPDVNILLFQNIDGKELCKMTKDDFQRLTPSYNADILLSHLHYLRE, the abundance fitness is -0.035 ± 0.049.

Take NMTTNERRVIVPADPTLWSTDHVRQWLEWAVKMYGLPDVNILLFQNIDGKELCKMTKDDFQRLTPSYNADILLSHLHYLRE: the abundance fitness is -0.105 ± 0.063. As to NMTTNERRVIVPADPTLWSTDHVRQWLEWAVKFYGLPDVNILLFQNIDGKELCKMTKDDFQRLTPSYNADILLSHLHYLRE, the abundance fitness was -0.034 ± 0.089. The value for NMTTNERRVIVPADPTLWSTDHVRQWLEWAVKYYGLPDVNILLFQNIDGKELCKMTKDDFQRLTPSYNADILLSHLHYLRE was -0.151 ± 0.087; that for NMTTNERRVIVPADPTLWSTDHVRQWLEWAVKKYGLPDVNILLFQNIDGKELCKMTKDDFQRLTPSYNADILLSHLHYLRE was 0.029 ± 0.058; that for NMTTNERRVIVPADPTLWSTDHVRQWLEWAVKGYGLPDVNILLFQNIDGKELCKMTKDDFQRLTPSYNADILLSHLHYLRE was -0.429 ± 0.045. The value for NMTTNERRVIVPADPTLWSTDHVRQWLEWAVKCYGLPDVNILLFQNIDGKELCKMTKDDFQRLTPSYNADILLSHLHYLRE was -0.307 ± 0.095; that for NMTTNERRVIVPADPTLWSTDHVRQWLEWAVKDYGLPDVNILLFQNIDGKELCKMTKDDFQRLTPSYNADILLSHLHYLRE was 0.002 ± 0.076; that for NMTTNERRVIVPADPTLWSTDHVRQWLEWAVKHYGLPDVNILLFQNIDGKELCKMTKDDFQRLTPSYNADILLSHLHYLRE was -0.108 ± 0.11.

NMTTNERRVIVPADPTLWSTDHVRQWLEWAVKWYGLPDVNILLFQNIDGKELCKMTKDDFQRLTPSYNADILLSHLHYLRE: the abundance fitness is -0.169 ± 0.05. The result for NMTTNERRVIVPADPTLWSTDHVRQWLEWAVNEYGLPDVNILLFQNIDGKELCKMTKDDFQRLTPSYNADILLSHLHYLRE reads 0.05 ± 0.088; that for NMTTNERRVIVPADPTLWSTDHVRQWLEWAVQEYGLPDVNILLFQNIDGKELCKMTKDDFQRLTPSYNADILLSHLHYLRE, -0.109 ± 0.063. The result for NMTTNERRVIVPADPTLWSTDHVRQWLEWAVTEYGLPDVNILLFQNIDGKELCKMTKDDFQRLTPSYNADILLSHLHYLRE reads -0.044 ± 0.055; that for NMTTNERRVIVPADPTLWSTDHVRQWLEWAVAEYGLPDVNILLFQNIDGKELCKMTKDDFQRLTPSYNADILLSHLHYLRE, -0.103 ± 0.041; that for NMTTNERRVIVPADPTLWSTDHVRQWLEWAVSEYGLPDVNILLFQNIDGKELCKMTKDDFQRLTPSYNADILLSHLHYLRE, -0.111 ± 0.048. As for NMTTNERRVIVPADPTLWSTDHVRQWLEWAVREYGLPDVNILLFQNIDGKELCKMTKDDFQRLTPSYNADILLSHLHYLRE, the abundance fitness is -0.052 ± 0.035.

For the variant NMTTNERRVIVPADPTLWSTDHVRQWLEWAVWEYGLPDVNILLFQNIDGKELCKMTKDDFQRLTPSYNADILLSHLHYLRE, the abundance fitness is -0.158 ± 0.049. The result for NMTTNERRVIVPADPTLWSTDHVRQWLEWAVGEYGLPDVNILLFQNIDGKELCKMTKDDFQRLTPSYNADILLSHLHYLRE reads -0.103 ± 0.034. The value for NMTTNERRVIVPADPTLWSTDHVRQWLEWAVMEYGLPDVNILLFQNIDGKELCKMTKDDFQRLTPSYNADILLSHLHYLRE was 0.003 ± 0.057; that for NMTTNERRVIVPADPTLWSTDHVRQWLEWAVYEYGLPDVNILLFQNIDGKELCKMTKDDFQRLTPSYNADILLSHLHYLRE was -0.198 ± 0.1; that for NMTTNERRVIVPADPTLWSTDHVRQWLEWAVPEYGLPDVNILLFQNIDGKELCKMTKDDFQRLTPSYNADILLSHLHYLRE was -0.468 ± 0.1. Regarding NMTTNERRVIVPADPTLWSTDHVRQWLEWAVHEYGLPDVNILLFQNIDGKELCKMTKDDFQRLTPSYNADILLSHLHYLRE, the abundance fitness was -0.037 ± 0.18.

Regarding NMTTNERRVIVPADPTLWSTDHVRQWLEWAVIEYGLPDVNILLFQNIDGKELCKMTKDDFQRLTPSYNADILLSHLHYLRE, the abundance fitness was 0.005 ± 0.069. The value for NMTTNERRVIVPADPTLWSTDHVRQWLEWAVFEYGLPDVNILLFQNIDGKELCKMTKDDFQRLTPSYNADILLSHLHYLRE was -0.166 ± 0.095. Take NMTTNERRVIVPADPTLWSTDHVRQWLEWAVDEYGLPDVNILLFQNIDGKELCKMTKDDFQRLTPSYNADILLSHLHYLRE: the abundance fitness is -0.028 ± 0.066. The result for NMTTNERRVIVPADPTLWSTDHVRQWLEWAVVEYGLPDVNILLFQNIDGKELCKMTKDDFQRLTPSYNADILLSHLHYLRE reads -0.036 ± 0.04; that for NMTTNERRVIVPADPTLWSTDHVRQWLEWAVEEYGLPDVNILLFQNIDGKELCKMTKDDFQRLTPSYNADILLSHLHYLRE, 0.053 ± 0.045; that for NMTTNERRVIVPADPTLWSTDHVRQWLEYAVKEYGLPDVNILLFQNIDGKELCKMTKDDFQRLTPSYNADILLSHLHYLRE, 0.006 ± 0.084. The result for NMTTNERRVIVPADPTLWSTDHVRQWLEWAGKEYGLPDVNILLFQNIDGKELCKMTKDDFQRLTPSYNADILLSHLHYLRE reads -0.164 ± 0.037. NMTTNERRVIVPADPTLWSTDHVRQWLEWAPKEYGLPDVNILLFQNIDGKELCKMTKDDFQRLTPSYNADILLSHLHYLRE: the abundance fitness is -0.649 ± 0.14.

Values taken from the Human Domainome abundance scans (Beltran et al. 2025).
